Assay results as given in PMC3525766 (Journal of structural biology, 2012).

Target: the molecule itself
Assay: cross-linking

B1: coiled-coil domain of human LRRFIP1 (LRRFIP1-CC) (domain or fragment)
chain: MDSLAEVEEKYKKAMVSNAQLDNEKTNFMYQVDTLKDMLLELEEQLAESRRQYEEKNKEFEREKHAHSILQFQFAEVKEALKQREEMLEK
B1 was tested, and the “stoichiometry N” value was 2.
